Test results taken from patent EP4817631A2 (AbbVie Deutschland GmbH & Co. KG, dated 2026).

Columns and labels:
R &D hRGMc-His [1] = molecular target: T1, R &D hRGMc-His (human, UniProt Q6ZVN8 36-400); assay: affinity KD as listed in Table 4; method not given
T1 construct: Bought (R&D) His-tagged human RGMc; also called human RGMc; not shown: His tag
T1 sequence: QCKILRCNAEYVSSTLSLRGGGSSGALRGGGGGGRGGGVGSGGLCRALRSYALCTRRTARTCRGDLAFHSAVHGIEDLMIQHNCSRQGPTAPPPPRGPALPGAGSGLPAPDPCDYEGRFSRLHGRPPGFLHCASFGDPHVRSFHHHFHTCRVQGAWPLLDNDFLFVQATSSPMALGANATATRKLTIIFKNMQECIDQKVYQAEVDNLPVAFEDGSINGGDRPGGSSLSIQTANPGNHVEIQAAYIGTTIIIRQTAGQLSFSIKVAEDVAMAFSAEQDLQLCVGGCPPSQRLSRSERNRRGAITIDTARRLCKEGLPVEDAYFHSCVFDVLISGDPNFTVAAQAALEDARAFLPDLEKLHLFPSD

Rat RGMa-His (rat) [2] = molecular target: Rat RGMa-His (rat) (UniProt D4A188); assay: affinity KD as listed in Table 4 (equals BIAcore value of Table 5)
hRGMa-His [3] = molecular target: T2, hRGMa-His (human, UniProt Q96B86 48-422, limits assumed); assay: as above
T2 construct: not shown: His tag
T2 sequence: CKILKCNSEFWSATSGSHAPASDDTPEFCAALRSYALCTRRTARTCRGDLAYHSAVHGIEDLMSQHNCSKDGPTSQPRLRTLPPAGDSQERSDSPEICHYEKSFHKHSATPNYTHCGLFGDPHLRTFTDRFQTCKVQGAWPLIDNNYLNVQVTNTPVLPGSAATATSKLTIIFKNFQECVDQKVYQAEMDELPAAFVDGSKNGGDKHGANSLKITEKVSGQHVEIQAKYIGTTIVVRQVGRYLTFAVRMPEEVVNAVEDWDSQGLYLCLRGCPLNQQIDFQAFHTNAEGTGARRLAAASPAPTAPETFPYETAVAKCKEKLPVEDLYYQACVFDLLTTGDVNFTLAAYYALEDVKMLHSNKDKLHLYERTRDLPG

Rat RGMa-His (rat) [4] = molecular target: Rat RGMa-His (rat) (UniProt D4A188); assay: BIAcore; Ab captured on CM5 chip via anti-hIgG Fc Ab, antigen injected; 1:1 Langmuir fit
hRGMa-His [5] = molecular target: T2, hRGMa-His; assay: as above
R &D hRGMc-His [6] = molecular target: T1, R &D hRGMc-His; assay: as above
[7] = molecular target: T3, hRGMc expressed in 293HEK cells (human, UniProt Q6ZVN8 36-400); assay: cell-based or functional assay
T3 sequence: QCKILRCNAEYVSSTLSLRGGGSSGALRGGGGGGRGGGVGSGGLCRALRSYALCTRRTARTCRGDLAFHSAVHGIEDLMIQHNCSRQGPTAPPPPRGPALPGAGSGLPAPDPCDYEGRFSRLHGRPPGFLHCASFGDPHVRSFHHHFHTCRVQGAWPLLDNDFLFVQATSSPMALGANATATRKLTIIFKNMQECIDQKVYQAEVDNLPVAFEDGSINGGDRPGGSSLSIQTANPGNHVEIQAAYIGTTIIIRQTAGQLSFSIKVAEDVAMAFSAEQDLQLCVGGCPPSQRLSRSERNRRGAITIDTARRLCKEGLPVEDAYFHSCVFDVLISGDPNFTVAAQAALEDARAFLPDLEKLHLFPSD

B1: h5F9.AM4 (antibody, V domains shown)
VH: EVQLVESGGGLVQPGGSLRLSCAASGFTFSNYGMNWIRQAPGKGLEWIGMIYYDSSEKHYADSVKGRFTISRDNSKNTLYLQMNSLRAEDTAVYYCAKGTTPDYWGQGTMVTVSS
VL: DVVLTQSPLSLPVTLGQPASISCRSSQSLESSDGDTFLEWFQQRPGQSPRLLIYDVSTRFSGVPDRFSGSGSGTDFTLKISRVEAEDVGVYYCFQVTHDPVTFGQGTKLEIK
notes: also called RGMA-h5F9AM.4; RGMA-h5F9Vh7a/pJP29 1 hIgG1/K mut
Q: For B1, which Kd (R &D hRGMc-His [1]) is on record?
A: The Kd was 120 pM.

Q: And the Kd (Rat RGMa-His (rat) [2])?
A: The Kd was less than 0.94 pM.

Q: What about the Kd (hRGMa-His [3]) of the same binder?
A: Its Kd is 15 pM.

Q: What about the Kd (Rat RGMa-His (rat) [4]) of the same binder?
A: Its Kd is less than 0.94 pM.

Q: What about the koff (Rat RGMa-His (rat) [4]) of the same binder?
A: The koff was less than 1e-06 s⁻¹.

Q: What about the kon (Rat RGMa-His (rat) [4]) of the same binder?
A: The kon was 1.1e+06 M⁻¹ s⁻¹.

Q: And the Kd (hRGMa-His [5])?
A: The Kd was 15 pM.

Q: What about the koff (hRGMa-His [5]) of the same binder?
A: Its koff is 2.2e-05 s⁻¹.

Q: And the kon (hRGMa-His [5])?
A: Its kon is 1.4e+06 M⁻¹ s⁻¹.

Q: And the Kd (R &D hRGMc-His [6])?
A: The Kd was 130 pM.

Q: And the koff (R &D hRGMc-His [6])?
A: Its koff is 0.00104 s⁻¹.

Q: And the kon (R &D hRGMc-His [6])?
A: Its kon is 7.85e+06 M⁻¹ s⁻¹.

B2: humanized antibody 5F9.23 (antibody, V domains shown)
VH: EVQLVESGGGLVQPGGSLRLSCAASGFTFSNYGMNWIRQAPGKGLEWIGMIYYDSSEKHYADSVKGRFTISRDNSKNTLYLQMNSLRAEDTAVYYCAKGTTPDYWGQGTMVTVSS
VL: DVVLTQSPLSLPVTLGQPASISCRSSQSLEYSDGYTFLEWFQQRPGQSPRLLIYEVSNRFSGVPDRFSGSGSGTDFTLKISRVEAEDVGVYYCFQATHDPLTFGQGTKLEIKR
notes: Humanized parental antibody; also called h5F9.23; H5F9.23*
Q: How did the “IC50, RGMc-mediated BMP reporter (BRE-luc) assay” value [7] turn out when B2 was run?
A: The value was 17000 pM.

Q: What about the Kd (Rat RGMa-His (rat) [4]) of the same binder?
A: The Kd was 2100 pM.

Q: What about the koff (Rat RGMa-His (rat) [4]) of the same binder?
A: The koff was 0.0017 s⁻¹.

Q: What about the kon (Rat RGMa-His (rat) [4]) of the same binder?
A: The kon was 830000 M⁻¹ s⁻¹.

Q: What about the Kd (R &D hRGMc-His [6]) of the same binder?
A: Its Kd is 29000 pM.

Q: And the kon (R &D hRGMc-His [6])?
A: Its kon is 830000 M⁻¹ s⁻¹.

B3: h5F9.AM11 (antibody, V domains shown)
VH: EVQLVESGGGLVQPGGSLRLSCAASGFTFSNYGMNWVRQAPGKGLEWVSMIYYDSSEKHYADSVKGRFTISRDNSKNTLYLQMNSLRAEDTAVYYCAKGTTPDYWGQGTMVTVSS
VL: DVVLTQSPLSLPVTLGQPASISCRSSQSLEDSDGGTFLEWFQQRPGQSPRLLIYDVSSRFSGVPDRFSGSGSGTDFTLKISRVEAEDVGVYYCFQATHDPLSFGQGTKLEIK
notes: also called RGMA-h5F9AM; 11; RGMA-h5F9pJP302/pJP 303 hIgG1/K mut
Q: What does the source list for B3?
A: Kd (R &D hRGMc-His [1]): 250 pM; Kd (Rat RGMa-His (rat) [2]): 74 pM; Kd (hRGMa-His [3]): 110 pM; Kd (Rat RGMa-His (rat) [4]): 74 pM; koff (Rat RGMa-His (rat) [4]): 5.2e-05 s⁻¹; kon (Rat RGMa-His (rat) [4]): 700000 M⁻¹ s⁻¹; Kd (hRGMa-His [5]): 110 pM; koff (hRGMa-His [5]): 9.9e-05 s⁻¹; kon (hRGMa-His [5]): 930000 M⁻¹ s⁻¹; Kd (R &D hRGMc-His [6]): 285 pM; koff (R &D hRGMc-His [6]): 0.0014 s⁻¹; kon (R &D hRGMc-His [6]): 5.05e+06 M⁻¹ s⁻¹

B4: h5F9.AM8 (antibody, V domains shown)
VH: EVQLVESGGGLVQPGGSLRLSCAASGFTFSNYGMNWIRQAPGKGLEWIGMIYYDSSEKHYADSVKGRFTISRDNSKNTLYLQMNSLRAEDTAVYYCAKGTTPDYWGQGTMVTVSS
VL: DVVLTQSPLSLPVTLGQPASISCRSSQSLEESDGYTFLHWFQQRPGQSPRLLIYEVSTRFSGVPDRFSGSGSGTDFTLKISRVEAEDVGVYYCFQATHDPLTFGQGTKLEIK
notes: also called RGMA-h5F9AM.8; RGMA-h5F9pJP297/pJP 298 hIgG1/K mut
Q: B4 was tested. Which Kd (R &D hRGMc-His [1]) did it give?
A: The Kd was 80 pM.

Q: What about the Kd (Rat RGMa-His (rat) [2]) of the same binder?
A: Its Kd is less than 1.5 pM.

Q: And the Kd (hRGMa-His [3])?
A: The Kd was 31 pM.

Q: What about the Kd (Rat RGMa-His (rat) [4]) of the same binder?
A: The Kd was less than 1.5 pM.

Q: What about the koff (Rat RGMa-His (rat) [4]) of the same binder?
A: Its koff is less than 1e-06 s⁻¹.

Q: What about the kon (Rat RGMa-His (rat) [4]) of the same binder?
A: The kon was 660000 M⁻¹ s⁻¹.

Q: And the Kd (hRGMa-His [5])?
A: The Kd was 31 pM.

Q: And the koff (hRGMa-His [5])?
A: Its koff is 2.7e-05 s⁻¹.

Q: What about the kon (hRGMa-His [5]) of the same binder?
A: Its kon is 870000 M⁻¹ s⁻¹.

Q: What about the Kd (R &D hRGMc-His [6]) of the same binder?
A: The Kd was 105 pM.

Q: And the koff (R &D hRGMc-His [6])?
A: Its koff is 0.00039 s⁻¹.

Q: What about the kon (R &D hRGMc-His [6]) of the same binder?
A: Its kon is 3.95e+06 M⁻¹ s⁻¹.

B5: h5F9.AM9 (antibody, V domains shown)
VH: EVQLVESGGGVVQPGRSLRLSCAASGFTFSNYGMNWVRQAPGKGLEWVAMIYYDSSEKHYADSVKGRFTISRDNSKNTLYLQMNSLRAEDTAVYYCARGTTPDYWGQGTMVTVSS
VL: DVVLTQSPLSLPVTLGQPASISCRSSQSLADSDGDTFLHWFQQRPGQSPRLLIYAVSHRFSGVPDRFSGSGSGTDFTLKISRVEAEDVGVYYCFQATHDPVTFGQGTKLEIK
notes: also called RGMA-h5F9AM.9; RGMA-h5F9pJP297/pJP 299 hIgG1/K mut
Q: Which Kd (R &D hRGMc-His [1]) does the source give for B5 here?
A: Its Kd is 690 pM.

Q: And the Kd (Rat RGMa-His (rat) [2])?
A: The Kd was 310 pM.

Q: What about the Kd (hRGMa-His [3]) of the same binder?
A: Its Kd is 470 pM.

Q: And the Kd (Rat RGMa-His (rat) [4])?
A: The Kd was 310 pM.

Q: And the koff (Rat RGMa-His (rat) [4])?
A: The koff was 0.00021 s⁻¹.

Q: What about the kon (Rat RGMa-His (rat) [4]) of the same binder?
A: The kon was 680000 M⁻¹ s⁻¹.

Q: And the Kd (hRGMa-His [5])?
A: The Kd was 470 pM.

Q: What about the koff (hRGMa-His [5]) of the same binder?
A: The koff was 0.0004 s⁻¹.

Q: What about the kon (hRGMa-His [5]) of the same binder?
A: The kon was 860000 M⁻¹ s⁻¹.

Q: And the Kd (R &D hRGMc-His [6])?
A: The Kd was 710 pM.

Q: And the koff (R &D hRGMc-His [6])?
A: The koff was 0.0107 s⁻¹.

Q: What about the kon (R &D hRGMc-His [6]) of the same binder?
A: The kon was 1.55e+07 M⁻¹ s⁻¹.
